{"source": "the DeepSol protein solubility set", "data": [{"assay": "soluble on expression in E. coli; label from the status in PepcDB or PDB records", "values": [{"sequence": "MTDLFASGDNSSNSFDDSNDEIARKNETAFKYTTIFHTNLSEKLYHELCALAFGEFDIPQGQISPLMWTRLHEIYSEVEMQTRKLPAGSNYSASSQKYANEAVQIASVLSIYTALAHEYDETVEVSLLSKLVVEDVEFRRIYALLLWSEKAISEQQYEKGLGDKVRKLEGIKSSRINSMMALKRPTFGAANAPKDASLDPDAPGTKEDQALEQMAMNVFFQLIRSGETSKAANLAIDLGMGAIGAQLQLHSMLRNPLDIPLEASKQNFGEYKRSRRAKYYQMTQKLIEQSQGSEDDAYWMLISAIRGNIQPMLKAGKSVIEKVWAYANSAVLARILAAEGAMTQETISTLFNVPLTSKSILDELRSEADRTKEVYILLRVIDDMLNDDIEDLYKFANETVGEFVPNDKNCQVNMLALDIFFHLVAVSYASGFEPNDDGNAVIILGFDDLRARSGTSSHKKMAAFYSRFLPEDMKLPEIVETMKAVDSDEEREILAESLKQSDIDFGRCACTLIEQIRKDDKTKVVTLEEQIDHWHWLLIGGEETALAALEECNRLVRKVMLSTPIDESVIRQIIRKALHFEVPKLLSQAVENEATVLSLITDGTLFEQKPGSQLAINKIEHAALEFYGLCSFVDVNNFMITIALKLGLMFKYTPITDDELSMIGGVKRLDNTTAADWEASLRVRARAEQTLREEVLKKRAAEHNTRVGMVQQHLDTVLPMLRGLVNNIGVRPEYFLSPRANGDPMRVHRKEIQEIRNLFLPQFFILLAQAAVRLDDTTNFNDFFTSFNNDLGLDQEWMVFIKAFYAELNLKVE", "soluble on expression in E. coli": "soluble"}, {"sequence": "MAHHHHHHMVGARFFFLNLPTSLSSASSLNRNKITSNRLPTDPSTPQWRDGYKLRKAVDDSSTQSTHRLPIYFCNAQRRVSSHSGRKTLLLATICIYDVGALDSFPIVLLVPLLNFIKSGLNEVDGSADCVDFSEYQCLTAPFPTTFRISLCPRLRFGGQFFFFCTHSRGDKNSRSILSHQRLAKFVPLFHTWYNEQDIS", "soluble on expression in E. coli": "not soluble"}, {"sequence": "MGHHHHHHSHMKAFSPVRSVRKNSLSDHSLGISRSKTPVDDPMSLLYNMNDCYSKLKELVPSIPQNKKVSKMEILQHVIDYILDLQIALDSHPTIVSLHHQRPGQNQASRTPLTTLNTDISILSLQASEFPSELMSNDSKALCG", "soluble on expression in E. coli": "soluble"}, {"sequence": "MAHHHHHHMPTSSWRAEHLLIKHSGSRNPVSRRTGQPTTISYEEAVTELQKWCQSINDGKVTFEEAARQRSDCSSYARGGDLGVFGPGEMMKPFEDATKSLEVGQVSGIVVTDSGVHIIKRIA", "soluble on expression in E. coli": "soluble"}, {"sequence": "GPLGSDFPQHSQHVLEQLNQQRQLGLLCDCTFVVDGVHFKAHKAVLAACSEYFKMLFVDQKDVVHLDISNAAGLGQVLEFMYTAKLSLSPENVDDVLAVATFLQMQDIITACHALKSLA", "soluble on expression in E. coli": "soluble"}, {"sequence": "MLQPPHQSLQVAAVPAQRAPVRDRDQDAPWHTEAVCRRDEAGLFFAPSKEPTAARLSREEAAKRVCARCPVMVECREHALLQPEPYGVWGGLTAAERRVVLARRRRRDVELKKAARGTIAAAG", "soluble on expression in E. coli": "not soluble"}, {"sequence": "MFLKKETFTRGDASVALFELSGLQRIEYLEFIQKRTAKYDTDMDGTTEADKRVAYMQMALEINAWLVSRSLLNGDSSQDADTLYQSVQAKWSYEALDAGAESVLMLSGLSADKKDNASDSGNESEDMTPEKS", "soluble on expression in E. coli": "not soluble"}, {"sequence": "GSAEEWYFGKITRRESERLLLNPENPRGTFLVRESETTKGAYCLSVSDFDNAKGLNVKHYKIRKLDSGGFYITSRTQFSSLQQLVAYYSKHADGLCHRLTNVCPTSKEFIVTD", "soluble on expression in E. coli": "soluble"}, {"sequence": "LDEYQVSQDRLVESEERYRQLVESAPDAVLIHCDGRYVFANPAALRLYGADTADQLLGREITDFVHPNSRQVVAERIKLLYQERSPAPLCEQQIVRLDGTVVDVEVVGIPYSHQGRPAVQAVLREIT", "soluble on expression in E. coli": "not soluble"}, {"sequence": "MGSDKIHHHHHHMPIYVYWGEDDFAIAKAVTTLRDRVLDPLWTSFNYTSFPPEDSEAPIQALNQVMTPVFGAGGRLVWLMNTNLLQNCPENVLAELTRTLSVIPENSFLLLTCRNKPDERLKSTKLLKQSATEFREFPLIPPWKTELLIQAVNQAAQTVGVKLTPKSAELLAEAVGNDTRLLYNEMEKLRLYAEDNNRPIEENTVTRLVRNTTQNSLQLAAAIRVGDTAKALTILADLINAAEPELRIIATLIGQFRTWLWVKLMVESGERNPQAIAQAAEIGNPKRIYFLQQEVQSLSLRQLISCLPLLLELEVTVKQGRAEISILQIKIIELCQLCQRI", "soluble on expression in E. coli": "not soluble"}, {"sequence": "MSLGSGSGLSYNAGITQDNFLGMGSSLGLNGSRNTDSTNVNLSYTEPYFTKDGVSLGGNIFYEDYDNSARKASAAYKRKTYGASGTLGFPVDENNSYYLGLGYTHDKLRNVEREYTREKYVNSMKFPINPQNSHYDRIQSADFDLSFGWNYNNLNRGYFPTAGSSANISGKLTLPGSDNKYYQVGTNFSGYIPLNSEHKWVIATKGGLAYTNSFGGKEVPFYQLYSAGGMGSLRGFAGGSIGPKAIYYREDGFKAPSQDVIGGNAMVNASLELIIPAPFISDKYQHNVRTSVFVDAATVWNTKWKQSKADYPNLPDFGDYKRVRASAGIALQWQSPIGPLSFSYAKPIKKYAGDEIEQFQFTVGSTFEGHHHHHH", "soluble on expression in E. coli": "not soluble"}, {"sequence": "GMQQSEHFSFGEQTEIEDIGGGLKRQMLGFNHELMAVKIWFDKGAEGYVHAHRHSQVSYVVEGEFHVNVDGVIKVLTAGDSFFVPPHVDHGAVCPTGGILIDTFSPAREDFVEGLS", "soluble on expression in E. coli": "soluble"}, {"sequence": "GSAMAPTNDQLTDLQEAHFVVFESEENSESVMDGFVEHPFYTATLNGQKYVVMKTKDDSYWKDLIVEGKRVTTVSKDPKNNSRTLIFPYIPDKAVYNAIVKVVVANIGYEGQYHVRIINQDINTKDDDTSQ", "soluble on expression in E. coli": "soluble"}, {"sequence": "MKKIPQISDAELEVMKVIWKHSSINTNEVIKELSKTSTWSPKTIQTMLLRLIKKGALNHHKEGRVFVYTPNIDESDYIEVKS", "soluble on expression in E. coli": "soluble"}, {"sequence": "MSLEISNRLKSISEVMDRCEIAADIGTDHAYLPIYLIKNNLCKRFIASDVNAGPLKKAINNINKYKLEDKIECRLGSGLNVLKLEEVDVVVIAGMGGNLIRDIIEERLDIFKKLKYAVLQPVQNPEILREYLIKRGFNIIEEQLCIDESKYYEIIKVCYDSKIEDKDDVYYEIGDKLIDMKHPLLKEYINYKIRKYDKIYKNISEESLNALSRKNELSIKIRKLKELLSCLEGHHHHHH", "soluble on expression in E. coli": "soluble"}, {"sequence": "MTKLEQIQQWTAQHHASMTYLSNPKTIEYLTGFGSDPIERVLALVVFPDQDPFIFAPALEVEVIKETGWQFPVIGYLDHENPWAMIADQVKQRHVNPEHVAIEKGQLQVARMEALAAQFSAPSFDLDITSFIEHMR", "soluble on expression in E. coli": "soluble"}, {"sequence": "YDYSNPATLFTLSDIGVSAHRYHNRLDIFTQSLENGAAQQGIEVSLLNEKGQTLTQASSDAQGHVQLENDKNAALLLARKNGQTTLLDLKLPALDLAEFNIAGAPGYSKQFFMFGPRDLYRPGETVILNGLLRDADGKALPDQPIKLDVIKPDGQVLRSVVSQPENGLYHFTWPLDSNAATGMWHIRANTGDNQYRMWDFHVEDFMPERMALNLTGEKTPLTPKDEVKFSVVGYYLYGAPANGNTLQGQLFLRPLREAVSALPGFEFGDIAA", "soluble on expression in E. coli": "not soluble"}, {"sequence": "MRLITFAGHYFSRIIIMINRALVRSRVLQQAYVYYHRDDADIQSAEKELLNSLEQTYDLYLYYLLLVPELTRLHAEALEANKNKHLATEKDKNPNLRMVRNRLAEKIESCRPLWVRAEQNALNWRSEEAFLRRLLKKIHLSETFTRYMRSDATDDFEADRLFWNELMRDIILPDEELAEVMEEQSIFWDNQIQLIEKIETEEAPDIEEVEQSVRQAVADGNYQTIRQENAPIEIVKEFVLKTIRRIEQDTDPSAILLPAYKEKDDAVFGTTLLRNAIINGQEYRH", "soluble on expression in E. coli": "not soluble"}, {"sequence": "MDVSLPCIKIQVQTRYIEEQSNPEYQRFVFAYLITIKNLSSQTVQLMSRRWLITDADGKQTVVEGDGVVGEQPRIKANDEYTYSSGTALDTPVGVMQGQYLMIDEQGESFTVEIEPFRLAVPHVLNLEHHHHHH", "soluble on expression in E. coli": "soluble"}, {"sequence": "NKDFQWDFSLNWSKSVKKLTEIYGGQKKFGDLKVGDRADAFYGSQWQKSADGELILDENGMPTKDAYKQYLGHLDPNFRMGMQNTFRYKDFTLSVDLDGAYKGVIYSVLSEKLWWGGKHPESVEYRDAQYAVGHPIYVPNGVVVTGGELKRDIDGNVISDTRTYKRNTTAVDWQQWCQNYPYQAYVSSKENAKFANVFDRSYIKLRRVALTYNFTKLLSKQSPVKGLTATVFGNNLAVWKKVPFVDPDYTGDSNDGGANDPTARYIGMGVNIKF", "soluble on expression in E. coli": "not soluble"}, {"sequence": "GKTVSVFGETCATPVGPAAGPHTQLAQNIVTSWLTGGRFIELKTVQILDRLELEKPCIDAEDECFNTEWSTEFTLLKAWDEYLKAWFALHLLEAMFQPSDSGKSFIFNMSVGYNLEGIKQPPMQQFIDNMMDASDHPKFAQYRDALNKLLQNEAFLARHGLQEKRESLQALPARIPTSMVQGVTLSTMHGCPPHEIEAICRYMLEEKGLNTFVKLNPTLLGYARVREILDVCGFGYIGLKEESFDHDLKLTQALEMLERLMALAKEKSLGFGVKLTNTLGTINNKGALPGEEMYMSGRALFPLSINVAAVLSRAFDGKLPISYSGG", "soluble on expression in E. coli": "not soluble"}, {"sequence": "MAQMKDNNVSNRATLVLYENRFIPLYRMIKEELIRFVQKKGIKSGMALPGDNELASQFGVSVGTVRRAIAELVSERIVIRQQGRGTFLAPYDTSRMLNSFWHIERRDGVVDVPLVSTHGFSQASATEEVAQKLALQPGDPVFVIKNSMTMQGTPVLLDTIYVPVRTFEGLTREKLSARDATIYDFYREQYGINIVKTIDRVSATVADKDTAKRLGCKLGAPMLRILRVAYSFGDTPIEYRCSLLDSENHEYVDVTGGDTSRYG", "soluble on expression in E. coli": "not soluble"}, {"sequence": "MGSDKIHHHHHHMDKATTPPEFERRRARAAQYLRMSTERQIYSIDNQRDAIRNYAEVMGYDIVATYEDPGRSGLSILGRPGLKRLIEDIESRRADFETVVVYDVSRWGRFQNTDESASYEYRCQRAGVRIEFCAELFVNDGSIGSDVLKAIKRSMAAEYSRMLSNRVFAGQSRIVKLGFSGGGPAGYGLRRLLVDGSGNPKAILHRDQRKGLASDRVVLVPGPENEVSTVRWIFNQFVKKGKTAVEIASALNARGLVTEFGRPWTGACVGTILASEKYVGNIVWNRISHRLLQNRLRNPPSAFVRADNVIEPLVTRALFDRAQAIRRARTYLRPDEELLADLTKLLKERGRLSSPIIDAAPGCHSASIYAHRFGSMNAAYQLIGYDGSANYRKLDIRRRLIQIRQQTIENLMSDIEGVGGSALYDPQTKIMRVNDEFSVAIWTAQYRMNVTGFPRWPFWKRGLIGPEVTILIRMESDNQTVRDFLIAPAHEAQSALHMLKADNGVRLDAFLFASLDPVVEMARREPMPANI", "soluble on expression in E. coli": "not soluble"}, {"sequence": "MKGVIMIIDGMADRPLEKLSGRTPLEAASTPNMDRIAESGINGIMDPIKPGVRAGSDTSHLSILGYDPYRVYTGRGPFEAAGVGLDVKPGDIAFRCNFATADEDMIITDRRAGRIRSGTSSIARTINSMTIEGFEDVEIIFRESTGHRAVLVLRGPGLGDKVSDADPKVEGKPPKKIKALDGSPESRKTAEVLNRIVKESYEILRDHPVNTGRIERGEAPANIILPRGAGAVPHVEKFQERYDLKAACIAETGLIKGIGHLTGMDVIDVEGATGGIDTDLESIKNAISSAIAADYDFLLINIDGADEAGHDGDLEGKVRFIERVDSILGDLMGDDIYFILTADHSTPVSVMDHTGDPVPIAITGPEVRVDDVTSFSERAAAAGGLCRIRGSDVMDILLDLMNKKEKFGALEHHHHHH", "soluble on expression in E. coli": "not soluble"}]}]}
